Source: patent US20220177524A1

Biological target: CD20 on Raji cells (CD20+) or K562-CD20 cells (UniProt P11836)
Assay: cell-based or functional assay

Substance | cytotoxicity on target cells (luciferase assay), MACS-sorted TCRαβ negative CD20 TAC-T cells [%] | cytotoxicity on target cells (luciferase assay), MACS-sorted TCRαβ negative CD20 cTCR-T cells [%]
anti-CD20 TAC (anti-CD20 scFv (Leu-16)-(GGGGS)3-huUCHT1.Y177T-GGGGS-CD4) | 54.6 | 
anti-CD20 chimeric TCR (anti-CD20 scFv (Leu-16)-(GGGGS)3-CD3epsilon) |  | 49.2
